Measurements reported in publication PMC3488230.

Legend:
Assay in all cases: EMSA
[1] = biological target: Mfd WA550 RA953 (Escherichia coli, UniProt P30958 1-1148, W550A;R953A)
[2] = biological target: Mfd D7AAA (Escherichia coli, UniProt P30958 1-1148, E1045A;D1048A;R1049A)
[3] = biological target: Mfd RA953 (Escherichia coli, UniProt P30958 1-1148, R953A)
[4] = biological target: Mfd WA550 (Escherichia coli, UniProt P30958 1-1148, W550A)

B1: 50 bp oligonucleotide duplex (dsDNA)
DNA 1: CTCATACGACGCTGTCGATCCAGTCACTGTCATGCGCTATCCGATCCTAG
DNA 2: CTAGGATCGGATAGCGCATGACAGTGACTGGATCGACAGCGTCGTATGAG
[1]
  binding result: no binding
[2]
  binding result: binds
[3]
  binding result: binds
[4]
  binding result: binds
